Assay results as given in US20130095127A1, “METHODS OF INHIBITING INFLAMMATION AND INFLAMMATORY DISEASES USING Gal-3BP (BTBD17B, LGALS3BP, GALECTIN-3 BINDING PROTEIN, MAC-2 BINDING PROTEIN)” (LA JOLLA INSTITUTE FOR ALLERGY AND IMMUNOLOGY, priority 2010, published 2013).

Experiments:
human macrophages = test: Gal-3BP-induced IL-2 secretion in monocyte-derived macrophages (ELISA); format: cell-based
Method: (§1) Monocytes were isolated from peripheral blood of human healthy donors. Monocyte purity as assessed by flow cytometry for CD14 (clone HCD14, BioLegend, San Diego, Calif.) was routinely >97%. Monocytes were cultured for six days with M-CSF (100 ng/ml, Peprotech, Rocky Hill, N.J.) in macrophage serum-free medium (Gibco, Carlsbad, Calif.) supplemented with nutridoma SP (Roche, Nutley, N.J.), and penicillin/streptomycin (Sigma Aldrich).
(§2) Measurement of cytokines was carried out with Ready set Go ELISA kits (eBioscience).
(§3) Human blood monocytes were incubated with M-CSF (100 ng/ml) for 6 days to produce monocyte-derived macrophages (MO). These macrophages were incubated with interferon-γ (250 u/ml) for 1 day to produce M1 macrophages or with IL-4 (20 units/ml) to produce M2 macrophages or with PGE-2 (1 μM) to produce Mreg macrophages and then challenged with LPS (10 ng/ml) for another day or with Gal-3BP (10 μg/ml over 48 h).
Human blood monocytes were cultured as in (A) (*P=0.05, ***P<0.0001). These macrophages were incubated with Gal-3BP (0.1,1 and 10 μug/ml) for 6 hours and IL-2 was measured by ELISA. […] Human blood monocytes were cultured as in (A). These macrophages were incubated with Gal-3BP (10 μg/ml) or LPS (10 ng/ml) for 6 hours (***P<0.0001).

[1] = system: human monocyte-derived macrophages (M0); test: Macrophage phenotype: IL-10, IL-2, IL-12 and IL-6 production (ELISA); format: cell-based; conditions: Gal-3BP 10 μg/ml over 48 h
Method: as §1, §2
as §3, with “(M0).” for “(MO).”, “units/ml)” for “u/ml)”, “h). […] P values are indicated on the graphs.” for “h).”

NFAT [2] = test: NFAT translocation to nucleus, immunofluorescence microscopy; format: cell-based, human; conditions: Gal-3BP 10 μg/ml for 2 hours; M0 macrophages; FIG. 5
Method: Cells were fixed in formaldehyde 4%, 10-20 min, room temperature. Cells were then permeabilized in chilled methanol, 5-10 min, and −20° C. in and washed extensively with PBS, then blocked using 5% donkey serum in PBS. Primary antibody (Rabbit anti-NFATc2/NFATp (1:50, ImmunoGlobe), diluted in PBS with goat serum 10%) was applied over night in 4° C. Biotin anti-rabbit antibodies (1:200 Molecular Probes) were incubated for 1 hour. Streptavidin, (Alexa Fluor® 594 conjugate*2 mg/mL*Cat. No. S-32356) detection 1:1000 for 1 hour. DAPI (1:1,000, Sigma Aldrich) for 5 min at room temperature.
These macrophages were then incubated with Gal-3BP (10 μg/ml for 2 hours). Both samples were stained with DAPI (nuclear stain) and an antibody to NFAT (anti-NFAT c2/p IG 209, affinity purified rabbit antibody, ImmunoGlobe). Nuclear translocation was assessed by immunofluorescence microscopy (FIG. 5).

[3] = system: microRNAs known to be transcriptional targets of NFAT; test: microRNA expression in M0 macrophages after Gal-3BP (miRCURY LNA Array); format: cell-based; conditions: Gal-3BP 10 ug/ml; human M0 macrophages; fold-change screen; FIG. 7
Method: The targets of NFAT signaling are largely cytokines, growth factors and their receptors, proteins involved in cell-cell interactions, as well as microRNAs (Crabtree and Schreiber, Cell, 138: 210 (2009)). To evaluate Gal-3BP's ability to induce NFAT signaling, microRNA expression in human M0 macrophages following Gal-3BP treatment was measured.
Human M0 macrophages were challenged with Gal-3BP (10 ug/ml), small RNAs were isolated and screened for microRNA expression using miRCURY™ Power Labeling Kit and hybridized on the miRCURY™ LNA Array (v.11.0). The samples were hybridized using a hybridization station and scanned using the Axon GenePix 4000B microarray scanner. GenePix pro V6.0 is used to extract the raw intensity of the image. Differentially expressed microRNAs were identified through fold-change screen. […] These microRNAs reflect increased NFAT activity via Gal-3BP.

NFAT [4] = test: Gal-3BP-induced IL-2 secretion with or without NFAT inhibitors (ELISA); format: cell-based, human; conditions: Gal-3BP 10 μg/ml for the times indicated; FIG. 6A
Method: as §2
To determine if NFAT is required for Gal-3BP-induced IL-2 secretion, human blood monocytes were incubated with M-CSF (100 ng/ml) for 6 days to produce monocyte-derived macrophages (M0). […] Macrophages were alternatively treated with Gal-3BP (10 μg/ml) in the absence or presence of CSA (1 μM) or FK506 (1 μM), another known NFAT inhibitor (FIG. 6B). […] (P values are ***0.0004, **0.006 and *0.034)

[5] = system: intracellular free Ca^2+ in human M0 macrophages; test: Ca2+ mobilization in M0 macrophages, fluo-4 fluorescence microscopy; format: cell-based; conditions: Gal-3BP 10 ug/ml; M0 macrophages loaded with 1 μM fluo-4; FIG. 4
Method: Human blood monocytes were cultured as described in Example 2 to produce MO macrophages, incubated with 1 μM fluo-4 for 30 minutes to quantify intracellular free Ca^2+ concentrations, and then triggered with Gal-3BP (10 ug/ml) with or without the PLC-γ inhibitor U73122 (10 nM). Thapsigargin (100 nM) served as positive control. Ca^2+ mobilization was assayed by fluorescence microscopy as previously described (Zanoni et al., Nature 460:264 (2009)). Each line is a measurement from a single cell (FIG. 4).

B1: Gal-3BP: Galectin-3 binding protein, a secreted 585 (murine 577) amino acid protein; human sequence SEQ ID NO:1 (protein, listed as Homo sapiens)
chain: MTPPRLFWVWLLVAGTQGVNDGDMRLADGGATNQGRVEIFYRGQWGTVCDNLWDLTDASVVCRALGFENATQALGRAAFGQGSGPIMLDEVQCTGTEASLADCKSLGWLKSNCRHERDAGVVCTNETRSTHTLDLSRELSEALGQIFDSQRGCDLSISVNVQGEDALGFCGHTVILTANLEAQALWKEPGSNVTMSVDAECVPMVRDLLRYFYSRRIDITLSSVKCFHKLASAYGARQLQGYCASLFAILLPQDPSFQMPLDLYAYAVATGDALLEKLCLQFLAWNFEALTQAEAWPSVPTDLLQLLLPRSDLAVPSELALLKAVDTWSWGERASHEEVEGLVEKIRFPMMLPEELFELQFNLSLYWSHEALFQKKTLQALEFHTVPFQLLARYKGLNLTEDTYKPRIYTSPTWSAFVTDSSWSARKSQLVYQSRRGPLVKYSSDYFQAPSDYRYYPYQSFQTPQHPSFLFQDKRVSWSLVYLPTIQSCWNYGFSCSSDELPVLGLTKSGGSDRTIAYENKALMLCEGLFVADVTDFEGWKAAIPSALDTNSSKSTSSFPCPAGHFNGFRTVIRPFYLTNSSGVD
IL-2 production (human macrophages; Gal-3BP 10 μg/ml or LPS 10 ng/ml for 6 hours, FIG. 1C, P<0.0001): induces IL-2 production | IL-2 production (human macrophages; Gal-3BP 10 μg/ml over 48 h, standard ELISA, FIG. 1A, P=0.0003): induced production of IL-2 | IL-2 production, concentration dependence (human macrophages; Gal-3BP 0.1, 1 and 10 μg/ml for 6 hours, ELISA, FIG. 1B): concentration dependently induces IL-2 production | IL-10 production ([1]; FIG. 2A): moderate IL-10 | IL-2 production ([1]; FIG. 2B): production of IL-2 | IL-12 production ([1]; FIG. 2C): no IL-12 | IL-6 production ([1]; FIG. 2D): little IL-6 | NFAT translocation to nucleus (NFAT [2]): induces NFAT translocation to nucleus | Number of eight NFAT-target microRNAs significantly up-regulated [3]: five were significantly up-regulated | IL-2 secretion over time (NFAT [4]): induced secretion of IL-2 | Ca^2+ mobilization [5]: triggers Ca^2+ mobilization
